Tests used:
NS3-GST = target: T1, NS3-GST (rice stripe virus (RSV)); experiment: MST
T1 chain: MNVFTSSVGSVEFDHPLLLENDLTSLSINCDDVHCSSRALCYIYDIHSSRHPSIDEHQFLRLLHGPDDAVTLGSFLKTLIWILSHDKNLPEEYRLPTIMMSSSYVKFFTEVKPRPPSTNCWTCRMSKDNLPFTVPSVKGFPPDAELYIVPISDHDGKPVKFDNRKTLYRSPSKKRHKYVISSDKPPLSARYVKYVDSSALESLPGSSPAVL

CP-GST = target: T2, CP-GST (rice stripe virus (RSV), UniProt P68559 1-322); experiment: MST
T2 chain: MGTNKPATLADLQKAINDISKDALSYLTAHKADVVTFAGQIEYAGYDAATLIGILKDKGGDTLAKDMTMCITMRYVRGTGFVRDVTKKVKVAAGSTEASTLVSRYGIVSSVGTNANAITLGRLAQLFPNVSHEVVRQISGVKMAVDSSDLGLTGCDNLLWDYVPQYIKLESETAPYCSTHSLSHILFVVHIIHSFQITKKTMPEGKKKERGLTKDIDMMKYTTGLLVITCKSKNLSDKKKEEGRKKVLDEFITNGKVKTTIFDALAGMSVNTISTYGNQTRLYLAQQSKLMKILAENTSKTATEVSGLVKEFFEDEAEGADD

| Binder | Kd (NS3-GST) [nM] | Kd (CP-GST) [nM] |
| --- | --- | --- |
| OsVIRK1C-His (domain or fragment, labelling dye (NanoTemper) in the MST assay) LCKRNRKPHKHMMIGSVDLGDEDEMRGSESLLYDLSTLRAATANFSEENKLGEGGFGPVYKGTLQNGQEIAVKRLSATSHQGQLEMKNEVVLVAKLQHKNLVRLLGCCIEEREKILVYEFLCNKSLDTILFDTSRQQDLNWEQRFKIIEGIGRGLLYLHEDSRLKIIHRDLKASNILLDVDMNPKISDFGLAKLFNMEASVANTSRIAGTYGYMAPEYALHGIFSAKSDVFSYGVLLLEIVTGRRNTCLHDSEDLLAFVWRHWSRGGAGELLDGCPAAGRRPQELLRCIHVGLLCVQEDPQLRPGMAAVVVMLNSRSVTLPAPSAPAFVSASRGIGGSPPPAAAAGDAPARSTDHEVPTAAR | 4250 | 704 |
| OsVIRK1N-His (domain or fragment, labelling dye (NanoTemper) in the MST assay) MAPPPPSPPCRPRVKPERALLCFSLLLLLTATTANASITDCPTTSSTNSSHVDDGAFGANLRALLSSLSAAAAASSSGFAENATGAAPDTAYGLAQCRGGIVGGGNGTSCRSCLDDSVRDAAKACPGEKSAVIISDYCLVRYSNASFAGAADERTVKLWWNTDNATQPERFKSLLGTLMGNLTDAAARASSPLMFAAGETDLPPFTKIYGMAQCTRDLAAGDCYRCLVGAVNNIPKCCDGKQGGQVITRSCSIRFEVYPFFDA | 5200 | 1300 |

From article PMC12708648 (2025)
